Measured values: patent US20220202704A1, “PHARMACEUTICAL PARENTERAL COMPOSITION OF DUAL GLP1/2 AGONIST” (Zealand Pharma A/S, priority 2019, published 2022)
*1 amine or outer side, *2 acyl side, *3 side chain or, on linkers, in order; H or OH if unused. Where no end group is shown, it is not given here. Side-chain parts run from the residue outwards. [ ]: non-standard residue; d: D form. The star is where a group is joined. C18 diacid = O=C(O)CCCCCCCCCCCCCCCCC(=O)*; γGlu = O=C(O)[C@H](CCC(=O)[*:2])N[*:1]; Aib = CC(C)(N)C(=O)O

Test: Physical stability via ThT, fibril formation (ASSAY IVc)
Type: physicochemical
Design: key to Aggregation (fibrillation, ThT): FD = Fibrillation Detected; FND = Fibrillation Not Detected
Conditions: for Aggregation (fibrillation, ThT): 40° C. 4 days
Method: Samples were prepared in a total volume of 0.5 mL API (herein e.g. CPD1) stock solutions were prepared by dissolving API in demineralised water at ambient temperature (typically 25° C.) to achieve 5 and 25 mg/mL API, respectively. 8 working solutions were prepared: 1) 40 mM phosphate pH 6 and 80 μM ThT; 2) 40 mM phosphate pH 6.5 and 80 μM ThT; 3) 40 mM phosphate pH 7 and 80 μM ThT; 4) 40 mM phosphate pH 8 and 80 μM ThT; 5) 40 mM phosphate pH 6, 540 mM mannitol and 80 μM ThT; 6) 40 mM phosphate pH 6.5, 540 mM mannitol and 80 μM ThT; 7) 40 mM phosphate pH 7, 540 mM mannitol and 80 μM ThT; and 8) 40 mM phosphate pH 8, 540 mM mannitol and 80 μM ThT.
200 μL of API stock was mixed with 250 μL working solution, pH was measured and adjusted to target, followed by adding demineralised water to a final volume of 500 μL. Samples were loaded in a 96-well black fluorescence plate (clear bottom) in triplicate 3×150 μL. Data were collected at fixed intervals of 10 min, each preceded by 300 s of automixing (agitation), over a period of 96 hours at 40° C. Physical stability, expressed as lag-time of fibril formation (in hours), was defined as the intersection between two linear regressions representing the initial stable phase and the growth phase.

For “CPD1: any form of the compound comprising SEQ ID NO: 1 (CPD1OH or CPD1NH2 and any pharmaceutically acceptable salt thereof) (H-H[Aib]EGSFTSELATILDK([γGlu-C18 diacid])QAARDFIAWLIQHKITD; also: C-terminal acid or amide, both forms, salts)”, the “Aggregation (fibrillation, ThT)” value (2 mg/mL CPD1, 20 mM phosphate pH 6, 270 mM mannitol) was “FD”, the “Aggregation (fibrillation, ThT)” value (2 mg/mL CPD1, 20 mM phosphate pH 6, no added tonicity agent) was “FD” and the “Aggregation (fibrillation, ThT)” value (2 mg/mL CPD1, 20 mM phosphate pH 6.5, 270 mM mannitol) was “FND”. For the same substance, the “Aggregation (fibrillation, ThT)” value (2 mg/mL CPD1, 20 mM phosphate pH 6.5, no added tonicity agent) was “FND”, the “Aggregation (fibrillation, ThT)” value (2 mg/mL CPD1, 20 mM phosphate pH 7, 270 mM mannitol) was “FND” and the “Aggregation (fibrillation, ThT)” value (2 mg/mL CPD1, 20 mM phosphate pH 7, no added tonicity agent) was “FND”. For the same substance, the “Aggregation (fibrillation, ThT)” value (2 mg/mL CPD1, 20 mM phosphate pH 8, 270 mM mannitol) was “FND”, the “Aggregation (fibrillation, ThT)” value (2 mg/mL CPD1, 20 mM phosphate pH 8, no added tonicity agent) was “FND” and the “Aggregation (fibrillation, ThT)” value (10 mg/mL CPD1, 20 mM phosphate pH 6, 270 mM mannitol) was “FD”. The “Aggregation (fibrillation, ThT)” value (10 mg/mL CPD1, 20 mM phosphate pH 6, no added tonicity agent) was “FD”, the “Aggregation (fibrillation, ThT)” value (10 mg/mL CPD1, 20 mM phosphate pH 6.5, 270 mM mannitol) was “FND” and the “Aggregation (fibrillation, ThT)” value (10 mg/mL CPD1, 20 mM phosphate pH 6.5, no added tonicity agent) was “FND”. The “Aggregation (fibrillation, ThT)” value (10 mg/mL CPD1, 20 mM phosphate pH 7, 270 mM mannitol) was “FND”, the “Aggregation (fibrillation, ThT)” value (10 mg/mL CPD1, 20 mM phosphate pH 7, no added tonicity agent) was “FND” and the “Aggregation (fibrillation, ThT)” value (10 mg/mL CPD1, 20 mM phosphate pH 8, 270 mM mannitol) was “FND”. For the same substance, the “Aggregation (fibrillation, ThT)” value (10 mg/mL CPD1, 20 mM phosphate pH 8, no added tonicity agent) was “FND”, the “Amyloid formation / fibrillation” value (2 and 10 mg/mL CPD1, pH 6) was “amyloid formation was observed” and the “Amyloid formation / fibrillation” value (2 and 10 mg/mL CPD1, pH 7 or 8) was “no fibrillation was observed”. For the same substance, the “Aggregation propensity, mannitol as tonicity agent compared to control (no tonicity agent)” value (pH range 6-8, 40° C. 4 days) was “No difference”.
